The values below come from PMC8267817.

The target in this test is T1, phosphorylated peptide CKATQA(p)SQEY corresponding to the C-terminal end of γ-H2AX (human).
T1 sequence (peptide, phosphoserine at S139 (7th letter of the printed peptide)): CKATQASQEY
Put plainly: SPR; Biacore T200, 25 °C, HBS-P (10 mM HEPES pH 7.4, 150 mM NaCl, 0.05% P20); phosphopeptide immobilised by thiol coupling of its N-terminal cysteine; VHH injected 120 s; Kd from equilibrium response fitted to a 1:1 model; fractional occupancy at saturating amounts (C6 180 nM, C6B 80 nM).

B1: C6 nanobody (purified, monovalent) (VHH)
VHH: DVQLVESGGGLVQAGDSLRLSCAASGLTFSRYAMGWFRQAPGNEREFVAVITASGRTTLYADSVKGRFTISRDNAKNTVALQMQSLKPEDTAVYYCAADYGTSRYTRRQSEYEYWGQGTQVTVSS
Take B1: the Kd stood at 11 nM.
